Columns and labels:
[1] = molecular target: His-DDX3X^414-582 (human) (UniProt O00571); assay: fluorescence thermal shift (FTS) assay; FTS with varying concentrations of peptide; melting temperatures fitted to single site or simple cooperative ligand binding, preferred model chosen
[2] = molecular target: His-DDX3X^414-582 (human) (UniProt O00571); assay: fluorescence thermal shift (FTS) assay; 10 µM His-DDX3X^414-582, 20 µM peptide, 50 mM HEPES pH 8, 10x SYPRO-Orange; change of melting temperature

His-DDX3X^414-582 (human), sequence (O00571 414-582): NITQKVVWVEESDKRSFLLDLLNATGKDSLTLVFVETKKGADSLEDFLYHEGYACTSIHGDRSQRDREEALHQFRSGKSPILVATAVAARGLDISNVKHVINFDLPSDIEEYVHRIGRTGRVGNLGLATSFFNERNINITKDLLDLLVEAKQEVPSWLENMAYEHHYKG

- Kd [1]: 5.49 µM
- increase of the melting temperature (Tm) of His-DDX3X^414-582 [2]: 5 °C
Substance: CK1δ-derived peptide δ-41 (from UniProt P48730 41-55)

Source: paper PMC5818060
